Here are results for 1 molecule from paper PMC4894380.

The data set has as its target MqsA (Escherichia coli (strain of the protein …, UniProt Q46864 1-131)). Put plainly: EMSA; shift at 50-, 100- and 200-fold excess MqsA; 10 mM Tris-HCl pH 7.5, 50 mM KCl, 1 mM DTT, 1 ug poly(dI.dC), 30-50 fmol labeled probe, ambient temperature, 1 h; 6% gel, 0.5x TBE. (A gel shift assay detects complexes by their altered migration in electrophoresis.)

MqsA (Escherichia coli, sequence (Q46864 whole entry): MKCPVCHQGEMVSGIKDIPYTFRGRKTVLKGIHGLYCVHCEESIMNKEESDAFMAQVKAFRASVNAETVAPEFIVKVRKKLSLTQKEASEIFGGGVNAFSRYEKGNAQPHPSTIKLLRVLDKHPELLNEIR

B1: p-csgD native palindrome 30-mer (dsDNA)
DNA 1: ACTTAATAAAACCTTAAGGTTAACATTTTA
DNA 2: TAAAATGTTAACCTTAAGGTTTTATTAAGT
B1: the binding result is on record as “binds”.
